One assay concerns the target factor XIIa. Nature of the assay: enzyme inhibition with chromogenic substrate (Dixon plot); enzyme (FXIIa 10 nM, plasma kallikrein 80 nM, trypsin 800 nM, elastase 400 nM) incubated with 0.5, 1 and 2 uM native poecistasin in 60 uL of 50 mM Tris buffer pH 7.4 for 5 min, then 0.2 mM chromogenic substrate; absorbance at 405 nm for 10 min; Ki from Dixon plot.
The target of a further assay is plasma kallikrein. The assay is described as above.

In the case of native poecistasin (natural protein), the Ki with factor XIIa was determined as 0.00931 µM; in the assay with plasma kallikrein it was 0.052 µM.

Values taken from publication PMC6265900.
